Binding result and Kd data for 2 molecules are collected here from publication PMC12796476 (Nature Communications, 2025).

Assay [1] deals with full-length NEDD4-2-Venus (Homo sapiens, NEDD4L, UniProt Q96PU5, strain). Nature of the assay: FRET or BRET. In general terms: BRET reads energy transfer from a luciferase to a nearby fluorophore.
The target of assay [2] is Venus-tagged NEDD4-1 HECT domain (HECT4-1-Ven) (Homo sapiens, NEDD4, UniProt P46934). Kind of assay: FRET or BRET.
Assay [3] concerns the target WW4-HECT4-2 domain of NEDD4-2, purified (Homo sapiens, NEDD4L (Q96PU5-1), UniProt Q96PU5-1). Kind of assay: BLI. (In general: BLI is a label-free optical method that tracks binding on a fibre tip over time.)

Sequence of full-length NEDD4-2-Venus (Q96PU5 whole entry, looked up, change not shown, the tested form may be a part): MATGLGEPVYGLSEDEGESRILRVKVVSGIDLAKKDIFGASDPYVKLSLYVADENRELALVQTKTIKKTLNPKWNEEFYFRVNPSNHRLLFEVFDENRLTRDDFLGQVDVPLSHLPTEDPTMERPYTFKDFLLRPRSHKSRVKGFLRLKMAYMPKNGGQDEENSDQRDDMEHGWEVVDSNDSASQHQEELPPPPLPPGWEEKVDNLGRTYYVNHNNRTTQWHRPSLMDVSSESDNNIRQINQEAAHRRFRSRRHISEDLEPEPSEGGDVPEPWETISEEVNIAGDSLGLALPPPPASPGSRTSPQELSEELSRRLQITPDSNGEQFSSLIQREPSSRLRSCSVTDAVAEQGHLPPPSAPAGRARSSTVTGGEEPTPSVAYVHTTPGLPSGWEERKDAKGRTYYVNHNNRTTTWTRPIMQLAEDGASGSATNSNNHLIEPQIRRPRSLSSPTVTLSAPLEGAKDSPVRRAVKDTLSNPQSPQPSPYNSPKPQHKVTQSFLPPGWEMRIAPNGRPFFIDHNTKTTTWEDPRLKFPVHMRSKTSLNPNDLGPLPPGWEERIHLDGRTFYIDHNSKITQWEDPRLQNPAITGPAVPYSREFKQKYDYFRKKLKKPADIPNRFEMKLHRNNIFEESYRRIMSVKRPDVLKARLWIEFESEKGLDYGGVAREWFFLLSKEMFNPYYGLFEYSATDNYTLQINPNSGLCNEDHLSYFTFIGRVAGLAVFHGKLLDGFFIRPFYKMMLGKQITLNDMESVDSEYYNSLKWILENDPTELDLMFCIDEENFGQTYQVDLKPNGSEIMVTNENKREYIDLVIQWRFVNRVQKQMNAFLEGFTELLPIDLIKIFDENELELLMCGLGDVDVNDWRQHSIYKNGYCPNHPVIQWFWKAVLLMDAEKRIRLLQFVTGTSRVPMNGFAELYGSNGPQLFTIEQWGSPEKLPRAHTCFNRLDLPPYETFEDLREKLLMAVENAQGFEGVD
Sequence of Venus-tagged NEDD4-1 HECT domain (HECT4-1-Ven) (P46934 984-1318): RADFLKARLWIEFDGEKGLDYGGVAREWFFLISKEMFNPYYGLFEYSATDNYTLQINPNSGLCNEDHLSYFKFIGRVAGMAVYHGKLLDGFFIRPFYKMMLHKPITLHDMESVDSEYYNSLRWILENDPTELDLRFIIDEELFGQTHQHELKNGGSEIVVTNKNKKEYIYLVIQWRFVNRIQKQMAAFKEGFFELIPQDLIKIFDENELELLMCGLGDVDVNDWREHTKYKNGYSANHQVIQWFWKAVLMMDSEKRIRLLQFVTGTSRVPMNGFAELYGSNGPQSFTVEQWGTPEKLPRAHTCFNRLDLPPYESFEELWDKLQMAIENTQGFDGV
Sequence of WW4-HECT4-2 domain of NEDD4-2, purified (Q96PU5 541-975, one chain of several): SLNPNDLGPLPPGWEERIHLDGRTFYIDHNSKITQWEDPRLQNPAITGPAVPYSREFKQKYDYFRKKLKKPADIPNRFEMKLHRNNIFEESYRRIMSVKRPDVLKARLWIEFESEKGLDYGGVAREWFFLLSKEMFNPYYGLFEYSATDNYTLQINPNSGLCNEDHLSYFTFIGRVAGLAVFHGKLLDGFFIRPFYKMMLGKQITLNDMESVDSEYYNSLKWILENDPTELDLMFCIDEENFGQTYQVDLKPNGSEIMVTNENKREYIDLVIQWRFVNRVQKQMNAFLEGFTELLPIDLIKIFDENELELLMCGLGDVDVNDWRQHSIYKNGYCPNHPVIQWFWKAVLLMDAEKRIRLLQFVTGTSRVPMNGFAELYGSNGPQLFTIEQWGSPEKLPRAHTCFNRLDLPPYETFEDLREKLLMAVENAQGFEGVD

B1: Cer-nb.C11 (VHH)
VHH: QVQLQESGGGLVQAGGSLRLSCAASGNISDVWYMGWYRQAPGKEREFVAGIAYGTSTYYADSVKGRFTISRDNAKNTVYLQMNSLKPEDTAVYYCAVIITRFVSYPRQHTYWGQGTQVTVSS
Regarding B1, the binding result in assay [1] is listed as “binds”; in assay [2] it was “no binding”.

B2: nb.C11 (HIS-tagged, purified) (VHH)
VHH: QVQLQESGGGLVQAGGSLRLSCAASGNISDVWYMGWYRQAPGKEREFVAGIAYGTSTYYADSVKGRFTISRDNAKNTVYLQMNSLKPEDTAVYYCAVIITRFVSYPRQHTYWGQGTQVTVSS
The term Kd denotes the free concentration of one partner at which half of the binding sites on the other are occupied at equilibrium, for simple one-to-one binding. For B2, the Kd in assay [3] amounted to 2 nM. That is a single-digit nanomolar value.
